The target of this assay is hPSMA (purified and soluble antigen) (human (printed as hPSMA), UniProt Q04609 44-750). Kind of assay: SPR, Biacore T200, standard kinetics, antigen immobilized on CM5 chip. On the technique in general: SPR reads the build-up and loss of mass on a sensor chip optically.
hPSMA (purified and soluble antigen), sequence (Q04609 44-750): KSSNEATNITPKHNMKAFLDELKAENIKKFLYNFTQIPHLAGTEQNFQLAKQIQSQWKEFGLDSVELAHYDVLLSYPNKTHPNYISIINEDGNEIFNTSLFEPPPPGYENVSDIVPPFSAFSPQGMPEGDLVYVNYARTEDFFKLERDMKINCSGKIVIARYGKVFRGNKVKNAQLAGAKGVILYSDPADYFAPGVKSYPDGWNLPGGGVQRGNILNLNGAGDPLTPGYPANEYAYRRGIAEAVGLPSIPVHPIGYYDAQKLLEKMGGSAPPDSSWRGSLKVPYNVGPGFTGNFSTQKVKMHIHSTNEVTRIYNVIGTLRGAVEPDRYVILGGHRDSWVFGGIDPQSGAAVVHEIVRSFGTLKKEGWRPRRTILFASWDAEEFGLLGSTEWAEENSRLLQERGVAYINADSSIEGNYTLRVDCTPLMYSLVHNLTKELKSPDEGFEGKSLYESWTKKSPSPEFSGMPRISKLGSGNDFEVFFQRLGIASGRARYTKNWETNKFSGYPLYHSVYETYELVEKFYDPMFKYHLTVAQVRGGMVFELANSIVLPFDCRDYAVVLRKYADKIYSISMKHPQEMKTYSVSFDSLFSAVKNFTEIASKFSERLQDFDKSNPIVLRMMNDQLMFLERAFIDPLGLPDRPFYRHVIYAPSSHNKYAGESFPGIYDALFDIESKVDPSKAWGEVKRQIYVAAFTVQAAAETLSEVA

B1: scFv Ab1 (D2B) of synthesis (scFv)
scFv: EVKLQESGPGLVKPSQSLSLTCSVTGYSITSGYYWNWIRQFPGNKLEWMGSISFDGNNNYNPSLRNRISITRDTSKNQFFLKLNSVTTEDTATYYCAREGDYYGSSFFTYWGQGTLVTVSSGGGGSGGGGSGGGGSALDIVMTQSPASLSASVGETVTLTCGASENIYGALNWYQRKQGKSPQLLIYGATNLADGMSSRFSGSGSGRQYSLKISSLHPDDVATYYCQNVFRTYTFGGGTKLEIKRAAAHHHHHH
modifications: L-pyroglutamic acid (<E) printed at position 1 of segment 1; two disulfide bonds (C22-C96 and C161-C226)
notes: Made by full chemical synthesis, 254 residues ending at H254; also called scFv Ab1 synthesis; scFv D2B
Regarding B1, the Kd stood at 12 nM.

B2: scFv Ab1 RREF (scFv)
scFv: EVKLQESGPGLVKPSQSLSLTCSVTGYSITSGYYWNWIRQFPGNKLEWMGSISFDGNNNYNPSLRNRISITRDTSKNQFFLKLNSVTTEDTATYYCAREGDYYGSSFFTYWGQGTLVTVSSGGGGSGGGGSGGGGSALDIVMTQSPASLSASVGETVTLTCGASENIYGALNWYQRKQGKSPQLLIYGATNLADGMSSRFSGSGSGRQYSLKISSLHPDDVATYYCQNVFRTYTFGGGTKLEIKRAAAHHHHHH
notes: Produced in a prokaryotic system; Contains two tags (Myc and His); not shown: Myc tag present in RREF in addition to the His tag
In turn, B2 had a Kd of 27 nM.

What is called Kd is a measure of binding affinity in units of concentration. Higher therefore signals a looser complex.
